Experiment: yeast display, Sf9 membrane polyspecificity reagent, FACS + sequencing; frameworks hold sequencing errors
How it was run: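 A synthetic nanobody library was expressed on Saccharomyces cerevisiae BJ5465 by galactose induction for 36–48 hours. The library was stained for 1 hour at 4 °C with 10% biotinylated, detergent-solubilized Sf9 membrane reagent and enriched with streptavidin microbeads before FACS. Low and high (top ~1%) gates were set on anti-HA fluorescence for expression and streptavidin fluorescence for reagent binding, and each polyreactivity label reflects the gate of origin.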

Sequence | polyreactivity (PSR sort gate)
QVQLVESGGGLVQAGGSLRLSCAASGLTLVTYAMGSYRQAPGKERELVAAINSGGSTNYADSVKGRFTISRDNAKNTVYLQMNSLKPEDTAVYYCNADRVSPATYDYWGQGTQVTVSS | low polyreactivity
QVQLVESGGGLVQAGGSLRLSRAGCGRIFFVYAMRWYRQAPGKERELVAALSVSDVSTSYADSVKGRFTISRDNAKNTVFLQMNSLKPEDTAVYYCLAAFRFYASSRIAGEDYWGQGTQVTVSS | low polyreactivity
QVQLVESGGGLVQAGGSLRLSCAASGFIFDVYAMGWYRQAPGKERELVAAITSGDGTNYADSVKGRFTISRDNAKNTVYLQMNSLKPEDTAVYYCAADDGVTYRGIIFSYWGQGSQVTVSS | low polyreactivity
QVQLVESGGGLVQAGGSLRLSCAASGRIFYGNAMGWYRQAPGKERELVAAITRSGSSTYYADSVKGRFTISRDNAKNTVYLQMNSLKPEVTAVYYCAVKYFDYVGQYAYYYWGQGTQVTVSS | high polyreactivity
QVQLVESGGGLVQAGGSLRLSCAASGLIFPSYAMGWYRQAPGKEMELVAAITFSGSDTNYADSVKGRFTISRDNAKNTVYLQMNSLKPEDTAVAYCAAAYFDFWGWLHDYWGQGTQVTVSS | low polyreactivity
QVQLVESGGGLVQAGGSLRLSCAASGSTFRRYAMGWYRQAPGKEREFVAGITFSGVSTYYADSVKGRFTISRDNAKNTVYLQMNSLKPEDTAVYYCNRRPKYVDNDYWGQGTQVTVSS | high polyreactivity
QVQLVESGGGLVQAGGSLRLSCAASGRTFTSYAMGWYRQAPGKERELVAVITWRGVSTYYADSVKGRFTISRDNAKNTVYLQMNSLKPEDTAVYYCAARRPGYYPYKGFDYWGQGTQVTVSS | high polyreactivity
QVQLVESGGGLVQAGRSLRLICAASGRILVPYTMGWYRQAPGKERDLVAAITIGGRTTYADSVKGRLTISRDNAKNTLYLQMNIMKPEDTAVYYCAKRDWRYEWYGYDYWGQGTQVTVSS | low polyreactivity
QVQLVESGGRLVQAGGSLRLSCAASGSIFTFYALGWYRQAPGKESELVAAISYRGGSTYYADSVRGRFTISRDNAKNTVYLQMNRLKPEDTAVYFCAAGRFPVFFQGYRMEYWGQGTQVTVSS | low polyreactivity
QVQLQESGGGLVQAGGSLRLSCAASGSIFKVVDMGLYRQAPAKEREFVATIGEGGNTYYADSVKGRFTISRDNAKNTVYLQMHSLKPEDTAVYFYAVVLGTSYRYTYWGQGTQVTVSS | low polyreactivity
QVQLVESGGGLVQAGGSLRLSCAASGTLRYYAMGWYRQAPGKERELVAAISKSGGRTYYADSVKGRFTISRDNAKNTVYLQMNSLKPEDTAVYYCAARGWTANYEMDHWGQGTQVTVSS | high polyreactivity
QVQLVESGGGLVQAGGSLRLSCAASGFILDTYGMGWYRQAPGKERELVAAISQSDVSTYYADSVKGRFTISRYNAKNTVYLQMNSLKPEDTAVYYCAADRAGLRWFWQVLYDYWGQGTQVTVSS | low polyreactivity
QVQLVESGGGLVQAGGSLRLSCAASGRIFQYYAMGWYRQAPGKERELVAAITRSGGRTYYADSVKGRFTISRDNAKNTVFLQMNSLKPEDTAVYYCAARDWYYTMYYWGQGTQVTVSS | high polyreactivity
QVQLVESGGGLVQAGGSLRLSCAASGRIFARNAMGWYRPEPGKERELVAGITWSTASTYYADSVKGRFTISLDNAKNTVYLQMNSLKPEDTAVYYCAADSYYYYDYWYVYLYDYWGQGTQVTVSS | high polyreactivity
QVQLVESVGCLVQAGGSLRLSCDASGIIFNQNTMGWYRPAPGKERQLVAAITSSVGSTYYADSVKGRFTISRDNAKNTVYLQMNSLKPEVTAVYYCAATGWVYRRSRDYWGQGTQVTVSS | low polyreactivity
QVQLEESGRGLVQAGGSLRLSCAASGFTFRIYAMGWYRQAPGKGREFVAAITWSSGSTYYADSVKGRFTISRDNAKITVYLQMNSLKPEDTAVYYCAATYRFFPPRYYYWGQGTQVTVSS | high polyreactivity
QVQLVESGGGLVQAGGSLRLSCAASGSTFQPYAMGWYIQAPGKEREFVATISGSAGSTYYADSVKGRFKISRDNAKNTVYLQMNSLKPEDTAVYYCNADSGWFGYDYWGQGTQVTVSS | low polyreactivity
QVQLVESGGGLVQAGGSLRLSCAASGRIFDYYAMGWYRQAPGKERELVAAISLIGASTYYADSVKGRFTISRDNAKNSVYLQMNSLKQEDPAVDYCAAQYAFEVPGYYREDYYWGQGTQVTVSS | low polyreactivity
QVHLVESGGGLVQAGGSLRLSCAASGRIFTYYAMAWYRQAPGKEREMVAGITGSGASTYYADSVKGRFTISRDNAKNTVYLQMNSLKPEDTAVYYCNAPYVIRPFRGRYDYWGQGTQVTVSS | high polyreactivity
QVQLVESWGGLVQAGGSLRISCAASGRTFGSYVMGWYRQAPGKERELVAAISSRGTRTYYADSVKGRFTISRDNAKNTVYLQMNSLKPEDTAVYYCNAKYGQYPPRYEYWGQGTQVTVSS | high polyreactivity
QVQLVESGGGLVQAGGSLRLSCAASGRTFDEYAMVWYRQAPGKERELVAAINSSGNTYYADSVKGRFTISRDNAKNTVYLQMNSLKPEDTAVYYCAVRSYNTISDDMDYWGQGTQVTVSS | low polyreactivity
QVQLVESGGGLVQAGGSLRLSCAASGRTFSFYAMGWYRQAPGKERELVAAISRGGTTNYADSVKGRFTISRDNAKNTVYLQMNSLKPEDTAVYYCAASYFRRGFYSIYEYDYWGQGTQVTVSS | low polyreactivity

Sequence | polyreactivity (PSR sort gate)
QVQLVESGGGLVQAGGSLRLSCAASGSTFRYYAMGWYRQAPGKERELVAAIDWSGGTTYYADSVKGRFTISRDNAKNTFYLQMNSLKPEDTAVYYCAADSSRRIGEDYWGHGTQVTVSS | low polyreactivity
QVQLVESGGGLVQAGGSLRLSCAASGSTFQRYAMGWYRQAPGKERELVAAITWSGGSTKYADSVKGRFTISRDNAKNTVYLQMNSLKPEDTAVYYCAATPGRGGGYNYWGQGTQVTVSS | low polyreactivity
QVQLVESGGGLVQAGGSLRLSCAASGFIFTRYAMGWYRQAPGKEREFVARIDSSGGSTYYADSVKGRFTISRDNAKNTVYLQMNSLKPEDTAVYYCAAVGYRFGSYYWGQGTKVTVSS | high polyreactivity
QVQLVESAGGLVQAGGSLRLSCAASGRTFCGNAMGWYRQAPGKERELVAAITSGGSTYYADSVKGRFTISRDNAKNTVYLQMNSLKPEDTAVYYCATRRIYKWYRYYYWGQGTQVTVSS | high polyreactivity
QVQLVESGVGLVQAGGSLRLSCAASGIFYGYAMGWYRQAPGKERELVAAISSGGSTYYADSVKGRFTISRDNAKNTVYLQMISLNPEDTAVYYCAAGKKRPGWTFPRYYWGQGTQVTVSS | high polyreactivity
QVQLVESGGGLVQAGGSLRLSCAASGSIYQYNAMGWYRQAPGKERELVAAISSRGGITYYADSVKGRFTISRDNAKNTVYLQMNSLKPEDTAVYYCAAEGYYSEVRWYEYWGQGTQVTVSS | high polyreactivity
QVQLVESGGGLVQAGGSHRLSCAASGRIFSVNAMGWYRQAPGKERELVASISWSGGSTYYADSVKGRFTISRDNAKNPVYLQMNSLKPEDTAVYYCNARIDSYGLDFDYWGQGTQVTVSS | low polyreactivity
QVQRVESGGRLVQAGGSLRLSCAASGRTFWAYAMGWYRQAPGKERELVAAITTSGGSTNYADSVKGRFTISRDNAKNTVYLQMNSLKPEDTAVDYCNADPTYHVVNGVGYWGQGTQVTVSS | low polyreactivity
QVQLVESGGGLVQAGGSLRLSCAASGTIFGGYGRGWYRQAPGKERELVAAITSGSSTYYADSVKGRFTISRDNAKNTVYLQMNSLKPEDTAVYYCAARPFPHSAYEGDYWGRGTQVTVSS | low polyreactivity
QVQLVESGGGLVQAGGSLRLSCAASGLIFGNNAMGWYRQAPGKERELVAAISWSTGGSTYYADSVKGRFTISRDNAKNTVYLQMNSLKPEDTAVYYCAAQYSYGEYWGYDYWGQGTQVTVSS | low polyreactivity
QVQLVESGGGLVQAGGSLRLSCAASGSTFQPYAMGWYRQSPGKEREFVATISGSAGSTYYADSVKGRFKISRDNAKNTVYLQMNSLKPEDTAVYYCNADSGWFGYDYWGQGTQVTVSS | low polyreactivity
QVQLVESGGGLLQAGGSLRLSFAASGRIYWNTMGWYRQAPGKERELVASISTGGGRTYYADSVKGRFTISRDNAKNTVYLQMNSLKPEDTAVYYCNADFISTRPPKATDEDYWGQGTQVTVSS | high polyreactivity
QVHLVESGGGLVQAGGSLRLSCAASGRTYARYTMAWYRQAPGKEREMVASITRGGSTYFADSVKGRFTISRDNAKNTVYLQMNSLKPGDTAVYYCAARFPQHNYWAMDYWGLGTQVTVSS | high polyreactivity
QVQLVESGGGLVQAGGSLRLSCAASGRIFRRYAMGWYRQAPGKEREFVAAISTSGGSTYYADSVKGRFTISRDNAKNTVYLQMNSLKPEDTAVYYCAKRFIYGRYNYWGQGTQVTVSS | high polyreactivity
QVQLVESGGGLVQAGGSLSLICAASGSTITYNAMGWYRQAPGKETELVAAIDWDGDTTYYADSVKGRFTISRDNAKNTVYLQMNSLKPEDTAVYYCAAEFYSLGKAIYEYWGQGTQVTVSS | high polyreactivity
QVQLQESGGGLVKAGGSLRLSCAASGSISNSAAMGWYRQAPGKERELVVSIGHGASSNYADSVKGRFTISRDNAKNTVYLQMNSLKPEDTAVYYCAAYPGFLDGFFYWGQSTQVTVSS | high polyreactivity
QVQLVESGGGLVQAGGSLRLSCAASGYIFYSNDMGWSRQAPGKVRELVAAIDNGGSTTYADSVKGRFTISRDNAKNTVYLQMNSLKPEDTAVYYCATDNPFTSTTYDYWGQGTQVTVSS | low polyreactivity
QVQLVESGGGLVQAGGSLRLSCAASGSIFDYYAMGWYRQAPGKERELVAAISWSGGSTYYADSVKGRFTISRDNAKNTVYLQMNSLKPEDTAVYYCAALSLAYHEYDYWGLGTQVTVSS | high polyreactivity
QVQLVESGGGLVQAGGSLRLSCAASGRIIRYYVMGWYRQAPGKEREFVASISGRGASTYYADSVKGRFTISRDNAKNTVYLQMNSLKPEDTAVYYWNKESYFDTYRRYDSWGQGTQVTVSS | low polyreactivity
QVQLVESGGGLVQAGGSLRLSCAASGSTFQINAMGWYRQAPGKEREFVAAITVSSGSTYYADSVKGRFTISRDNAKNTVYLQMNSLKPEDTAVYYCAADYWGQGTQVTVSS | low polyreactivity
QLQLVESGGGLVQAGGSLRLSCAPSGRIFPSYAMGWYRQAPGKERELVAPISWSGVSTYADSVKGRFTISRDNAKNTVYLQMNSVKPEDTAVYFCAAQYTLVIFPYGGYVIEYEYWGQGTQVTVSS | low polyreactivity

Source: the nanobody polyreactivity screen of Harvey et al. (2022)
